T1: amphyphisin SH3 (AMPH_HUMAN), P49418
T1 chain: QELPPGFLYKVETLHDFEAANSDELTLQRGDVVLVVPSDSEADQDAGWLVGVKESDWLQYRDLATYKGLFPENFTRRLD


Columns and labels:
[1] = target: endophilin SH3 (SH3G2_HUMAN), Q99962; assay: SPOT array
[2] = target: T1, amphyphisin SH3 (AMPH_HUMAN), P49418; assay: SPOT array

| Binder | normalised SPOT signal, Boehringer light units (BLU); mean over the file's lines of this peptide [1] | normalised SPOT signal, Boehringer light units (BLU); mean over the file's lines of this peptide [2] |
| --- | --- | --- |
| APPPPSRPPQPRPG [Q9NRK3 42-56] | 3870 | 856 |
| LIRFLPRPIRQQLL [Q12789 943-956] | 3730 | 1740 |
| LLLLLYRPPRYQIA [O60725 54-67] | 89.6 | 159 |
| LGRLPSRPPLPGSG [Q9Y570 9-23] | 14800 | 269 |
| LHVQLNRPNKRNAM [Q13011 68-81] | 128 | 193 |
| LHLVIRRPLETHPG [Q9H6Y5 142-155] | 596 | 49.4 |
| LKVWPPRPGRWPSF [Q9NQQ2 431-444] | 1090 | 2610 |
| LGPVPVRPPPGPEL [Q9Y5L9 821-835] | 81.8 | 33.4 |
| LLLHPRRPRLHPGT [O95141 51-64] | 1540 | 87 |
| LIRTFQRPDRVELM [Q9UMF0 113-126] | 224 | 6100 |
| LLGKPKRPRSAYNV [Q00059 151-164] | 268 | 45.3 |
| LGQKPQRPRRPASP [P07360 19-32] | 34600 | 16800 |
| LLIIISRPARLLES [O60307 271-284] | 87.4 | 90.2 |
| LLSWIKRPSQRALR [Q9P145 28-41] | 568 | 28.6 |
| LHGRPYRPPSPPPP [O75593 148-162] | 246 | 218 |
| LHESFPRPKRVSKD [P42568 55-68] | 391 | 3510 |

| Binder | normalised SPOT signal, Boehringer light units (BLU); mean over the file's lines of this peptide [1] | normalised SPOT signal, Boehringer light units (BLU); mean over the file's lines of this peptide [2] |
| --- | --- | --- |
| LLEQILRPSKFLTY [Q9P0V3 740-753] | 6.9 | 29.9 |
| LKEILKRPVDPIRA [O43630 494-507] | 55.3 | 5.8 |
| LLFSLRRPSSTVTM [Q96SW7 100-113] | 537 | 54.9 |
| LILPPPRPPLAVTS [O60241 813-827] | 3500 | 1060 |
| LLMVPRRPGYGAMG [Q9H9G7 14-27] | 3260 | 183 |
| LKAPPARPVKGAYR [Q99760 384-397] | 3650 | 238 |
| LKGIFTRPSKLTRK [P30622 114-127] | 192 | 121 |
| LLEPPERPYRDREP [Q9HCM7 689-702] | 80.4 | 188 |
| LLLPPPRPPHSDIT [Q9H6X1 45-59] | 1430 | 873 |
| LLGPFRRPTTQLRA [P25100 499-512] | 614 | 336 |
| LLDTIKRPALQGLS [Q9P2D8 4-17] | 47.1 | 41.8 |
| LLLGIRRPEFLSRP [Q9NWT5 57-70] | 1340 | 51.2 |
| APPLPVRPPKTSPG [Q96FN5 451-465] | 2280 | 4490 |
| LIQELRRPKYSIYF [Q15715 82-95] | 169 | 46.5 |
| LKVQLKRPKDANRP [Q9NR84 149-162] | 69 | 28.8 |

— publication PMC314469, “Protein Interaction Networks by Proteome Peptide Scanning” (PLoS Biology, 2004)
